# Experimental data from article PMC4476257 (Molecular pharmaceutics, 2015).
# Read-outs that look alike come from different tables or passages of the source. Bridge positions count the residues as written; N and C are the ends. Square brackets hold non-standard residues; d marks the D form. Ends that are not written are not given here. Peptide text beside a SMILES is read from it. I, II: the chains in the order shown. * marks the point of attachment. Dolaproine = CO[C@@H]([C@@H]1CCCN1)[C@@H](C)C(=O)O; Dil = CC[C@H](C)[C@H](NC)[C@@H](CC(=O)O)OC; X1 = C[C@@H](N*)[C@@H](O)c1ccccc1; NMeV = CN[C@H](C(=O)O)C(C)C; Mpa = O=C(O)CCS
# What was measured:
# [1] = test system: HeLa and MDA-MB-231 cells; assay: Anti-proliferation assay, statements pooled over both cell lines; assay type: cell-based, human; conditions: HeLa and MDA-MB-231 (Figures 3E, 3F), 2.5 µM, 2 h treatment, MTT after 72 h
# HeLa cells = assay: Anti-proliferation assay; conditions: 5 µM, physiological pH, 2 h treatment, MTT after 72 h, Figures 3A and 3E
# [2] = peptide:lipid 1:300, 7 µM, 25 °C, excitation 295 nm
# [3] = test system: HeLa and MDA-MB-231 cells; assay: Cell membrane integrity assay; assay type: cell-based, human; conditions: HeLa and MDA-MB-231, 10 µM, 2 h, pH 7.4 or pH 5.0; mean, n=4; Figure 4
# MDA-MB-231 cells = assay: Anti-proliferation assay; assay type: cell-based, human; conditions: MDA-MB-231, 1.25 µM, 2 h treatment, MTT after 72 h; Figures 3B and 3D
# [4] = pH 7.4 to pH 5.0, POPC liposomes, peptide:lipid 1:300, 7 µM, 25 °C
# [5] = toxin derivatives conjugated to pHLIP; cited from earlier work
molecule,measurement,setting,value
"CC[C@H](C)[C@@H]([C@@H](CC(=O)N1CCC[C@H]1[C@H](OC)[C@@H](C)C(=O)N[C@H](C)[C@@H](O)c1ccccc1)OC)N(C)C(=O)[C@@H](NC(=O)[C@@H](NC)C(C)C)C(C)C [MMAE, monomethyl auristatin E] (H-[NMeV]V[Dil][Dolaproine]-X1)",cytotoxicity,[1],20–30%
same,cytotoxicity,HeLa cells,about 70%
I: GGEQNPIYWARYADWLFTTPLLLLELALLVDADEGTCG-NH2 / II: [Mpa][NMeV]V[Dil][Dolaproine]-X1 (disulfide I:37-II:1) [pHLIP(D25E)-MMAE],Trp fluorescence emission maximum,"[2]; pH 5.0, POPC liposomes",329 nm
same,Trp fluorescence emission maximum,"[2]; pH 7.4, POPC liposomes",347 nm
same,disruption of the plasma membrane (trypan blue uptake),[3],"neither conjugates, nor low pH treatment, caused disruption of the membranes"
same,cell killing at 1.25 µM (percentage as printed),MDA-MB-231 cells,49%
same,pH-dependent secondary structure transition (CD),[4],transition from an unstructured conformation to an α-helix
amanitin,pK of insertion,[5],5.9
